The series deals with SP-1 (rhSP-1) (Homo sapiens, UniProt P08047 2-785). Kind of series: EMSA; 300 ng rhSP-1, 125 fmol probe; competed by 50x/100x cold probe; Promega Gel Shift Assay System (binding buffer, salt and pH not given); 10 min preincubation then 20 min with probe at 25 C; 4% non-denaturing PAGE. The conditions noted are these: protein: recombinant; label: 32P 5' end; blunt. (In EMSA bound probe runs differently from free probe, usually more slowly.)
Chain of SP-1 (rhSP-1) (P08047 2-785): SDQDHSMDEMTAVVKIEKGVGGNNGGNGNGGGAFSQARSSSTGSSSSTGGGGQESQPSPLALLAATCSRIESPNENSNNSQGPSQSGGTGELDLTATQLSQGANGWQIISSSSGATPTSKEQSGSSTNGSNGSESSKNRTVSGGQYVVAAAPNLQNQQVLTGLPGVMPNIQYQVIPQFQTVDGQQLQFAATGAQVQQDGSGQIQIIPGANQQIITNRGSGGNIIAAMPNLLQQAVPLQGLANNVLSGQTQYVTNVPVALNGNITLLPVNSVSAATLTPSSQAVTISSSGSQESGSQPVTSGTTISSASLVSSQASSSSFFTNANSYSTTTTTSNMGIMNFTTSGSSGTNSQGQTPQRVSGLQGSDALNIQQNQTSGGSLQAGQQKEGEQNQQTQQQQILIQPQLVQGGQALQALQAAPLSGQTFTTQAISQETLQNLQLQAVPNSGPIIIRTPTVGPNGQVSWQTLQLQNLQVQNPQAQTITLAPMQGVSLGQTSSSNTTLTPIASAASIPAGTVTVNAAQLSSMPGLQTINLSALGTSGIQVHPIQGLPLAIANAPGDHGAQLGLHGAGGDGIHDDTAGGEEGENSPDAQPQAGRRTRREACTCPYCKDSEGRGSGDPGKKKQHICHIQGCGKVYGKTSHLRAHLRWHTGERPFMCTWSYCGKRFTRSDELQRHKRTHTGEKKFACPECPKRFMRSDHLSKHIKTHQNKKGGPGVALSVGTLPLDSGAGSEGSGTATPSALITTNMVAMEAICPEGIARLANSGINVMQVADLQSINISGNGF

B1: dsA5pInDel (CHRNA5 promoter rs3841324 region) (dsDNA)
DNA 1: GATTGGGCGGGGCCAGAGGGAAATAGGGG
DNA 2: CCCCTATTTCCCTCTGGCCCCGCCCAATC
On to B1, for which the binding result was “binds”.

The values above are taken from paper PMC3155531, “In Vitro and Ex Vivo Analysis of CHRNA3 and CHRNA5 Haplotype Expression”.
